Assay: soluble on expression in E. coli; label from the status in PepcDB or PDB records

Row | Sequence | soluble on expression in E. coli
1 | MSLISLSFFPGAKIGVLGLNGAGKSTLLRIMAGIDKDIDGEARPQPGLKVGYLPQEPKLDESKTVREVVEEAVADVAYALKRLDEVYAAYAEPDADFDALAKEQGELEALIQAKNGHNLDNALERAADALRLPEWDAQVKYLSGGERRRVAICRLLLENPDMLLLDEPTNHLDAESVAWLERFLVDYAGTVVAITHDRYFLDNAAGWILELDRGEGIPWQGNYTSWLEQKDARLKQEASQEKARQKTIEKELEWVRQNPKGRQAKSKARMARFEELQNTEHQKRNETNELFIPPGERLGDKVIEVKNLTKSFDGRVLIDDLSFSMPKGAIVGIIGPNGAGKSTLFKMLSGVEKPDSGTIELGDTVKLASVDQFRDSMNDKHTVFQEISEGADIIRINNFEIPARAYCSRFNFKGVDQQKVIGELSGGERNRVHLAKLLKAGGNVLLLDEPTNDLDVETLRALEEALLEFPGCAMVISHDRWFLDRIATHILDYRDEGKVNFYEGNYTEYMEWLKQTLGAQAAEPHRIKYKRITK | not soluble
2 | MGSDKIHHHHHHMRVDHSTQPVAVLQEPSIVLVIQGVKRAYIGKDIFKFQQGQCLFISIAIPFDCDTLVEREPMLAIAIKFEPQMMAELATKMDKEHRPLIEDFDNKEIKLSCGLNIIEMNSVISDVALRLLNLLRSKQDTAILGEQVKRELIYRVLQAGGSDFIQNLSAIMSRSGVIYTICEIIQRDYYRNLTVQELAKQAGMSVSLFHQAFKKVTNYSPLQYIKITRLHKARDLILNNQMGVAEAAYEVGYVSASQFSREFKRLFGVPPKLSTN | not soluble
3 | MKVLPMLLALAVPGLCWAEDPQTFEGAGVVFEVQVEKNLVDIDHRLYRLPNSTVRNGMPSLFQVKPGSVVSYSGTVSQPWSTITDIYIHKQMSEQELAEMIEKEQPRQDGEEQPR | not soluble
4 | MGSDKIHHHHHHVSENTLKPQVNKLLAALPTNDYERLIPHLKLVSLPTRQVIYEPGEPIKQVYFPQNAVVSIVTGMKDGSTVEVGIVSNEGMVGIPVILGGSTTTTKAFVQVAGSGVQIDADVLRTEFNRGGAIQNLLLRYIRATYTELTQGCACNRLHTLEERLARWLLTVSDRLESEEFPLTQEFIAQMLGVRRSGVTVAASALSRAGMISYQRGQINILNREDLEETSCECYRVIQNEFARLLKNQPKRDRR | not soluble
5 | MPKLSIIIPAYNNAHLLPETLDSIFSQDCEPFELIVVDDGSTDNTRDVVEGYGRGIVYLWQENSGGCSKPRNVGIRHATGEYIAMFDSDDIMKPGKVRSQMDFLDRNPDVDFVFTDFCDFRGAEVLASHITTCPIFNSLPKQKVGEDAYVISSTAAYETLLVENFIGGSAMMFRKSLFNEAGPFDETLEVSEDIDFTLRVARTHALGFINRIGHHRRLHDGNMTSKAEKILTRSLRVFGGHLSAPKSSKAQQRLIDKVAGLHGALAYHYRENARYGEALAEYRASLSLRPACLGTYKAMAKLAVMALTSGGKLEHHHHHH | soluble
6 | MKRVLIFADIFPPAFAPRAAYLTKYLPRFGWEPFVITEKMPTPASQSHGDVFGGFCSDIPVTAIDLSSASFLSQAIRSARLFGELFWEQKEERFYKEAAKAFPSVKFDAVLCLTYRKFPLATACRYAQAHRLPWVADCRDVIEQYSNYDFLPRGKRLPSLLMKWLRHRYISLRNHYLHKADRVVSVSPWHCNLLAEVNPRTELIYNGYDPELFSRGSLPCGKFILSYTGRLLTPEMHDPTLLFEALASEALQEVRKERRIELHWYVDEYSRSILQPFIRQYALKDMCRFFPMVPAVQVPEILRHSSVLLQLGNTEKPGGPHGIVSTKLFESLAMEKPILMVRSDEAIVADIISEAEAGLAAQTTEEVATFLSDQYTRWKAEGDTSLRNPNRNFISTFSREEEAKQYARLLESIVAN | not soluble
7 | GPGTFGTAKARYDFCARDRSELSLKEGDIIKILNKKGQQGWWRGEIYGRIGWFPSNYVEEDYSEYLPETGGGSGSSMTYKLILNGKTLKGETTTEAVDAATAEKVFKQYANDNGVDGEWTYDDATKTFTVTEHSLEHHHHHH | soluble
8 | MSLRNQSKMPLVERLDAHAKSCPISLHVPGHKSGAIYPDAWQKLLKWDVTEITGMDDLHHPEDVILEAEELLAECYGSKKSYFLVNGTSGGNVAVIMATLKRGEKVLVPRDAHKSILHGIELAGGEPIFLTPATNKEVGVASGVTTELLEETLHNHPDVKLCIFTYPSYYGTTFNLQKCIRIAHDFGAVVFVDEAHGAHFLTSSEFPKSAVELGADVVVQSAHKTLPALTMGSYLHVVNDLPIFEKLAYYLQVFQTSSPSYLIMASLDAARKYVATYTAADVEAFWKMRARWIKWLTKNKFEVILPDDPLKIIVRKTGYTGYELQAIFEESSYFPELADESQVLLILPLIKKGIDFTPISRIHSPMKKEIAKEPYEMSTPCASGLALTYEEMHARATEFVLLDEATTRVSAETISLYPPGIPAIIRGEGITEKHIRELKNIRTRHYQGGEKLAENYIRVFREGHHHHHH | soluble
9 | MSLSSERVLSNARVVSAERVFVGSVLLRDGLIAAVDEGRSHLAGAEDLGGDYLLPGLVELHTDNLEKHMTPRPGVDWPSASAVLAHDAQIVSAGITTVFDALSIGDVNPKGKRMQQLPKMLEAIGEAAASGDARADHRLHLRCEVSHPQTLEVFRELVEHPLVQLVSVMDHAPGQRQFARLEKYREYYQGKYHLSDAEMDAFIVEQVANSERYSDAARAAIVDVCQGRGLSVASHDDATLAHVRESAGYGMAIAEFPTTVEAARASHEHGLQVLMGAPNVVRGGSHSGNVAAAQLAGIGVLDILSSDYYPASLLHAALLLAGEHSEYDAIRYDLPRAVAMVSRTPALAAGLTDRGEIRVGLRADLLQARALGNNQPVVRQVWRGGQRVFEGHHHHHH | soluble
10 | MGSDKIHHHHHHMKNNTGYIIGAYPCAPSFHQKSEEEETEFWRQLSDTPDIRGLEQPCLEHLHPLGDEWLLRHTPGNWQIVVTAIMETMRRRSENGGFGLASSDEEQRKACVEYYRHLYQKINKINGNNTGKVIALELHAAPLAGNPNVAQATDAFARSLKEIANWDWSCDLVLEHCDAMTGPAPRKGFLPLVNVLETIADYDISVCINWARSAIEGRDTSLPLIHTQQAKQAGKLGALMFSGTTLDGEYGEWQDLHAPFAPFCPQSLMTEKHVKELITAAAPELLQFTGIKLLEINASADINHRINILRDGINMMKKATRR | not soluble
11 | MTFFFDDRDQAVPYTATADDVAPTGQQIWQELQSGKWGEIAPFTVTPEMLEAAREARRQEIEAWRTEQEAKPFTFEWNGRIWNAGPDSLGRLSPVVMLAKSVTAQTHMAWSDADNQQVKLSMPELEELAESQKTALLTEAESVIRQPGRAVRLNRETDESGEARGRASVFPESVRSVVYAM | not soluble
12 | MHRSTFIRTSGTSSRTLTARYRSQYTGLLVARVLFSTSTTRAQGGNPRSPLQIFRDTFKKEWEKSQELQENIKTLQDASGKLGESEAYKKAREAYLKAQRGSTIVGKTLKKTGETMEHIATKAWESELGKNTRKAAAATAKKLDESFEPVRQTKIYKEVSEVIDDGESSRYGGFITKEQRRLKRERDLASGKRHRAVKSNEDAGTAVVATNIESKESFGKKVEDFKEKTVVGRSIQSLKNKLWDESENPLIVVMRKITNKVGGFFAETESSRVYSQFKLMDPTFSNESFTRHLREYIVPEILEAYVKGDVKVLKKWFSEAPFNVYAAQQKIFKEQDVYADGRILDIRGVEIVSAKLLAPQDIPVLVVGCRAQEINLYRKKKTGEIAAGDEANILMSSYAMVFTRDPEQIDDDETEGWKILEFVRGGSRQFT | not soluble
13 | MATITQRNGKWRVQIRMKGVSRSATFERASDAKAWAARIESQIMDGIQGNAPRNTIFADLIRRYLSEVTPSKRGAREESYRIGRALKTPLAKVRLADLRPQDFADWRDQRLQEVSPTSVGRELTTLSAVCEHAMKEWGLLRENPVRKISKPKKSRARTRRPTEQEIADICAALLYRPNEKPKMAVQRVAVAVLFAIETAMRAGEICGLKWADVNMRRRIAHLPITKNGDSRDVPLSLRAAELIEQLRGIDDTWVFSLDAKSLDVLFRRARDNCGIQGLHFHDTRREALTRLSKKVPVEVLAKISGHRDLRILLNVYYRPDMADIAKMLD | not soluble
14 | GLDVAISQNGFFRLVDSNGSVFYSRNGQFKLDENRNLVNMQGMQLTGYPATGTPPTIQQGANPAPITIPNTLMAAKSTTTASMQINLNSTDPVPSKTPFSVSDADSYNKKGTVTVYDSQGNAHDMNVYFVKTKDNEWAVYTHDSSDPAATAPTTASTTLKFNENGILESGGTVNITTGTINGATAATFSLSFLNSMQQNTGANNIVATNQNGYKPGDLVSYQINNDGTVVGNYSNEQEQVLGQIVLANFANNEGLASQGDNVWAATQASGVALLGTAGSGNFGKLTNGALEASNVDLSK | soluble
15 | MAHHHHHHMSSNDGLSEDTVMYIKDNNIGQLMEYILRCIITDKPTKPLEYVHELTASPLPPRVVLAGPPASGKGTQARHICSYYKRAIGKKPVHVSSGDLLRAEVAQGTHLGKIAENFMQRGELVPDSLIISIIRNRLTQEDAVMNGWLLDGFPRTRSQAIALDAAGLCPRIFVVLDTPDDVLFGRVEGRRTDPVTGIIYHLKYNPPPENDTALLERLQHRDDDTREVLGPRLETYHSMVEGLLDYYGSIMYHVDGNRPEAAITKDITEYLQNHNVA | soluble
16 | MNSQNSQKSSSFDDFAGQVVIYTEIGNSKCAKGRDLLHREGIPYTDVSLDSFPQHSQEIFDRTGTDVLPQIFFNNIYIGHETDLERVIGETNKWESLVEHVRREKCTNGGPIVPHPMNAIGFEEYETENNNKCCDEVLWVPDEYSKLVRDMKNAQLIKNNRVKLKVYRNSFKGEELVEWLMRQKGIKRSEALEIGQELIDRHVGQQTSKESGMTFSPDRYYQLVEDDENKPLNAGEDDGDKKQSFPVAECNEKFSKLLKPIFNDILTDDNQSIIYGGLSTNDNFTRYLQFSRELNHVTFEGSTSDDRLTFFINVYNMMLIHITLKHGPPIGIWQRRKLVNGTYYLIGGHRYALHSIINGILRGNKKGPGMLWKAFGKQDARLPISLAVCDPLIYFSLCSGSKTTPPLRVYHSKSIHQEMRENARQTLLRGDKFLRVDMKKNVIHLGKTFKWFSDDFGGSTEKILQWILDVLDTNESDKKHNLQKLFFTGEYSIEYIPYDWSTNGRMDEKEREDIDGGGGGGGDVRRTKTIE | not soluble
17 | MHHHHHHMGIVTGPIIDHSKENDVMNEAEQNAETVRRGYAAFNSGDMKTLTELFDENASWHTPGRSRIAGDHKGREAIFAQFGRYGGETGGTFKAVLLHVLKSDDGRVIGIHRNTAERGGKRLDVGCCIVFEFKNGRVIDGREHFYDLYAWDEFWR | soluble
18 | GPGSMSYHGPNREGLGEDLEEAEEAFIDLEDPNIEILDEAALPEEDGDDASDVVDNHAGMDVQDRGNEEEGEGLHLGVEVEDLNAAPDYEPEHDDAFATFVAPAKKPLHAIAVHPQNERIFAVGGEGEEVYILEMDHAGKEPALKATLTGHTDTVSLLSFSPNGQWLASGSLDSSVAVWSTETWERKHTLGDLYGEIMTLLWHPSSLILAAGADDAQAAMWNVVKGTLIMYFVGHRGAVTCTAWSPDVKKLVTGSSDGTVAVFNPKTGDQELCISKDLSPDNAGITALQFVNADQCVVGCEDGTLHVISLRSGKVATHFEDLHEQAIESLAINRSSLLLLTASCDCRVIVWNVADFSPRATVEVGESVIPALWSHSNLIAAGCSDGNIRVWDGRSSAQDPLALLMGHRRMVLGLVTTSTVLASTSDDGTAKFYRFAETFR | soluble
19 | MEERDSETGWRGSREGWLQAAYEALIEGGVESVKIMTLAARLKLSRTSFYWFFKDRADVLDALRSQWAGTTTAPLVAASAEYAESRAEAMLNVLACFLSGRFDARFEFAARSWGLQDPAMAAAVEAADAERLAALTDMLARWGHDPQEADVRARTVYLVQIGYISMRAEETLETRLARIPNYVEIYTGVRPEPREMARFRARLGLAV | not soluble

— the DeepSol protein solubility set
